From paper PMC4394351

Molecular target: GFP-tagged human PPP1R15A (GFP-hR15A) (human) (UniProt O75807)
Assay: co-IP; as a5, then three washes in GFP-Trap lysis buffer with additional NaCl; 350 mM salt

Chain of UniProt O75807 (O75807 whole entry): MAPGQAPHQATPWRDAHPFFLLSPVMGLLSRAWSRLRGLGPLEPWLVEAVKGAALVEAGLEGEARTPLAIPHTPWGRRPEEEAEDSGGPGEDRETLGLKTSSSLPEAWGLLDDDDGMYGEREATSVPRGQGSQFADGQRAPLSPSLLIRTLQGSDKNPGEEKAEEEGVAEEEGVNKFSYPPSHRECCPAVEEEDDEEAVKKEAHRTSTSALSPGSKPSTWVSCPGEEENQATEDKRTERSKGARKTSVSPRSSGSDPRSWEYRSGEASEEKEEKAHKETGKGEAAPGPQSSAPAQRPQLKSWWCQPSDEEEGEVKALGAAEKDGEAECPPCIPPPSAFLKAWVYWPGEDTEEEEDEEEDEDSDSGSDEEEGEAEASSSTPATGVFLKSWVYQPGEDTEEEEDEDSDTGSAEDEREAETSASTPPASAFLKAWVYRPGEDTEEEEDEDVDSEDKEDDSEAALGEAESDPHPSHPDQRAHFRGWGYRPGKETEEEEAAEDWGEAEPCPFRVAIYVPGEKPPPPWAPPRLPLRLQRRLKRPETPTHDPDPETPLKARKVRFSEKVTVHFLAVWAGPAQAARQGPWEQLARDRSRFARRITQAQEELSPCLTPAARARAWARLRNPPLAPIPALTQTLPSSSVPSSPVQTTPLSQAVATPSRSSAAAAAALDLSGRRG

actin (endogenous, HEK293T cells) (from UniProt P60709 1-375) (natural protein)
percent of the actin bound at 150 mM salt that was lost at 350 mM: 75%
